# Where “and” joins values, the source holds several entries; their conditions need not be identical. Equal values may be shown once. Read-outs that look alike come from different tables or passages of the source. Marks after values point to notes of the source that are not given here.
# Tests used:
# [1] = cited from earlier work
# [2] = Dosing regimen model: required bioavailability for ingestible device (Tables 16, 17); conditions: for Eff Dose: approved dose x bioavailability of the approved route (Table 16); for Eff. Dose: baseline dose x bioavailability, SC (Table 17), assumed weight 70 kg
# blood glucose = test: Euglycemic clamp procedure (PD) in swine (Example 3); type: in vivo, Yorkshire female swine
# Protocol: (§1) Blood samples were kept on wet ice until centrifugation and separation of plasma. […] Glucose was monitored every five (5) minutes during the study by portable glucose analyzer (StatStrip (SS) hospital glucose monitoring system (Nova Biomedical, Waltham, Mass.)). At each time point, approximate 0.1 mL of blood was drawn and immediately placed on a glucose monitoring test strip, and the whole blood glucose concentration was measured by the SS in triplicate.
# A euglycemic clamp procedure (ECP) was employed to compare pharmacokinetics and pharmacodynamics of regular human Insulin (NOVOLIN® R) delivered subcutaneously (SC) in the neck versus intra-jejunally (IJ) by the jet delivery device in the small intestine. ECP was used to quantify the amount of glucose required to maintain normoglycemia after exogenous bolus of insulin. […] The animals were anesthetized for the entire ECP.
# [3] = Insulin PK after SC or intra-jejunal (IJ) jet delivery in swine (Example 3); type: in vivo, Yorkshire female swine; conditions: for Cmax of blood insulin, Average / Tmax of blood insulin, Average: average of animals; for Cmax of blood insulin / Tmax of blood insulin: individual animals
# Protocol: A total of 18 Yorkshire female swine in good health and weighing 60-70 kg each were included in this study. Swine were divided into two groups with 9 animals per group. […] A sham surgical laparotomy was performed. […] The jet delivery device was configured with the single nozzle in an axial orientation.
# Swine were divided into two groups with 9 animals per group. […] In all 18 animals, a laparotomy procedure was performed to expose the abdominal cavity. Animals remained under anesthesia during the entire procedure for the PK/PD study.
# For the laparotomy in group 02, a small segment of the jejunal mucosa and serosa was exposed by midline laparotomy and the jet delivery device was inserted through antimesenteric incision.
# as §1
# The animals were anesthetized for the entire ECP.
# [4] = pig, in vivo
# [5] = IJ administration via jet delivery device, ~40 U
# [6] = SC administration group compared with IJ administration group
compound,measurement,setting,value
"CC[C@H](C)[C@H](NC(=O)[C@H](Cc1ccccc1)NC(=O)[C@H](CCC(=O)O)NC(=O)[C@H](CCCCNC(=O)COCCOCCNC(=O)COCCOCCNC(=O)CC[C@H](NC(=O)CCCCCCCCCCCCCCCCC(=O)O)C(=O)O)NC(=O)[C@H](C)NC(=O)[C@H](C)NC(=O)[C@H](CCC(N)=O)NC(=O)CNC(=O)[C@H](CCC(=O)O)NC(=O)[C@H](CC(C)C)NC(=O)[C@H](Cc1ccc(O)cc1)NC(=O)[C@H](CO)NC(=O)[C@H](CO)NC(=O)[C@@H](NC(=O)[C@H](CC(=O)O)NC(=O)[C@H](CO)NC(=O)[C@@H](NC(=O)[C@H](Cc1ccccc1)NC(=O)[C@@H](NC(=O)CNC(=O)[C@H](CCC(=O)O)NC(=O)C(C)(C)NC(=O)[C@@H](N)Cc1cnc[nH]1)[C@@H](C)O)[C@@H](C)O)C(C)C)C(=O)N[C@@H](C)C(=O)N[C@@H](Cc1c[nH]c2ccccc12)C(=O)N[C@@H](CC(C)C)C(=O)N[C@H](C(=O)N[C@@H](CCCNC(=N)N)C(=O)NCC(=O)N[C@@H](CCCNC(=N)N)C(=O)NCC(=O)O)C(C)C [Semaglutide, semaglutide]",Bio Avail (Approved Dosing Info),"[1]; in vivo, sc",89%
CC[C@H](C)[C@H](NC(=O)[C@H](CCC(=O)O)NC(=O)[C@H](CO)NC(=O)[C@@H](NC(=O)[C@@H](N)CO)C(C)C)C(=O)N[C@@H](CCC(N)=O)C(=O)N[C@@H](CC(C)C)C(=O)N[C@@H](CCSC)C(=O)N[C@@H](Cc1cnc[nH]1)C(=O)N[C@@H](CC(N)=O)C(=O)N[C@@H](CC(C)C)C(=O)NCC(=O)N[C@@H](CCCCN)C(=O)N[C@@H](Cc1cnc[nH]1)C(=O)N[C@@H](CC(C)C)C(=O)N[C@@H](CC(N)=O)C(=O)N[C@@H](CO)C(=O)N[C@@H](CCSC)C(=O)N[C@@H](CCC(=O)O)C(=O)N[C@@H](CCCN=C(N)N)C(=O)N[C@H](C(=O)N[C@@H](CCC(=O)O)C(=O)N[C@@H](Cc1c[nH]c2ccccc12)C(=O)N[C@@H](CC(C)C)C(=O)N[C@@H](CCCN=C(N)N)C(=O)N[C@@H](CCCCN)C(=O)N[C@@H](CCCCN)C(=O)N[C@@H](CC(C)C)C(=O)N[C@@H](CCC(N)=O)C(=O)N[C@@H](CC(=O)O)C(=O)N[C@H](C(=O)N[C@@H](Cc1cnc[nH]1)C(=O)N[C@@H](CC(N)=O)C(=O)N[C@@H](Cc1ccccc1)C(=O)O)C(C)C)C(C)C [teriparatide],Bio Avail (Approved Dosing Info),[1]; SC administration,95%
same,Eff Dose,[2],0.02 mg
Novolin® R: regular human insulin (NOVOLIN® R),"mean dextrose infusion rate, IJ vs SC",blood glucose; first 70 minutes after administration,higher in the IJ administration group
same,"mean dextrose infusion rate, IJ vs SC",blood glucose; from 75 minutes to 420 minutes post-administration,higher in the SC administration group
same,"Cmax of blood insulin, Average",[3]; [5],77.40 uIU/mL
same,"Tmax of blood insulin, Average",[3]; [5],0.9272 h
same,Cmax of blood insulin,[3]; [5],40.93 uIU/mL and 96.77 uIU/mL and 5.03 uIU/mL and 7.96 uIU/mL and 48.77 uIU/mL and 85.38 uIU/mL and 207.96 uIU/mL and 126.39 uIU/mL
same,Tmax of blood insulin,[3]; [5],20 min and 50 min and 90 min (2×) and 40 min (3×)
same,"AUC of blood insulin, SC vs IJ",[3]; [6],higher than that of the IJ administration group
same,"maximum plasma concentration Cmax, SC vs IJ",[3]; [6],higher than that of the IJ administration group
same,"Cmax of blood insulin, Average",[3]; SC administration,202.94 uIU/mL
same,"Tmax of blood insulin, Average",[3]; SC administration,1.452 h
same,Cmax of blood insulin,[3]; SC administration,451.00 uIU/mL and 60.74 uIU/mL and 354.00 uIU/mL and 356.60 uIU/mL and 65.71 uIU/mL and 59.18 uIU/mL and 73.34 uIU/mL
same,Tmax of blood insulin,[3]; SC administration,50 min (2×) and 180 min and 105 min and 30 min and 120 min
same,time to maximum plasma concentration (Tmax),[3]; jejunum administration group (jet delivery device),0.9272 h
alirocumab,Bio Avail (Approved Dosing Info),"[1]; in vivo, sc",85%
same,Eff Dose,[2],63.8 mg
certolizumab pegol,Bio Avail (Approved Dosing Info),"[1]; in vivo, sc",80%
same,Eff Dose,[2],160 mg
denosumab,Bio Avail (Approved Dosing Info),"[1]; in vivo, sc",61%
same,Eff Dose,[2],36.6 mg
dulaglutide,Bio Avail (Approved Dosing Info),"[1]; in vivo, sc",65%
same,Eff Dose,[2],0.49 mg
same,Bioavailability relative to IV,[4],26.51 ± 6.55% ^a
same,Bioavailability relative to SC,[4],49.11 ± 0.08% ^a
same,(AUC)T0-T240 h ± SEM,[4]; 1.2 mg,4355.86 ± 1094.57^a ng.hr/mL
same,AUCID (± SEM),[4]; 1.2 mg,3.89 ± 0.09473 µg·h/mL
same,Tmax,[4]; 1.2 mg,8 h
same,(AUC)T0-T240 h ± SEM,"[4]; iv, 1.2 mg",16429.33 ± 600.93 ng·h/mL
same,Tmax,"[4]; iv, 1.2 mg",1 h
same,(AUC)T0-T240 h ± SEM,"[4]; sc, 1.2 mg",8869 ± 887.33 ng·h/mL
same,Tmax,"[4]; sc, 1.2 mg",6 h
etanercept,Bio Avail (Approved Dosing Info),"[1]; in vivo, sc",58%
same,Eff Dose,[2],29.0 mg
glucagon,Bioavail. (Baseline dose),"[1]; in vivo, sc",100.0%
same,Eff. Dose,[2],2.0 mg
golimumab,Bio Avail (Approved Dosing Info),"[1]; in vivo, sc",51%
same,Eff Dose,[2],25.5 mg
natalizumab,Bio Avail (Approved Dosing Info),"[1]; in vivo, iv",100%
same,Eff Dose,[2],300 mg
secukinumab,Bio Avail (Approved Dosing Info),"[1]; in vivo, sc",73%
same,Eff Dose,[2],109.5 mg
somatropin,Bioavail. (Baseline dose),"[1]; in vivo, sc",80.5%
same,Eff. Dose,[2],0.8 mg
tocilizumab,Bio Avail (Approved Dosing Info),"[1]; in vivo, sc",80%
same,Eff Dose,[2],129.6 mg
ustekinumab,Bio Avail (Approved Dosing Info),"[1]; in vivo, sc",78%
same,Eff Dose,[2],35.1 mg
vedolizumab,Bio Avail (Approved Dosing Info),"[1]; in vivo, iv",100%
same,Eff Dose,[2],300 mg

# Source: US11007356B2, “Ingestible device for delivery of therapeutic agent to the gastrointestinal tract” (Progenity, Inc., priority 2018, dated 2021)
